In article PMC6525047:
One block for each binder: values may come before it.

Experiments:
RIPLET (human), Q8IUD6 = molecular target: T1, RIPLET (human), Q8IUD6; assay: SEC-MALS; conditions: remark: other sources report otherwise
T1 chain: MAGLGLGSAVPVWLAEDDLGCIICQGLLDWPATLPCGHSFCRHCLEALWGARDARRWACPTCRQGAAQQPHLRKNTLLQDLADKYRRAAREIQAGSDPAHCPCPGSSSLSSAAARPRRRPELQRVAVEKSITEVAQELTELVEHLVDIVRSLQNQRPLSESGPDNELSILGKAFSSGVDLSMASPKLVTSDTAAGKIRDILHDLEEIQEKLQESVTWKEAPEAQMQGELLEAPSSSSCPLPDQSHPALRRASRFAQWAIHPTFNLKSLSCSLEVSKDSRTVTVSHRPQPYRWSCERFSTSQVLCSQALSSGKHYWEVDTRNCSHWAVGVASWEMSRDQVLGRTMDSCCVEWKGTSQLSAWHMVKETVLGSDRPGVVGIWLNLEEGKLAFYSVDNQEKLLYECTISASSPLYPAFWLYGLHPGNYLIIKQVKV

RIG-IdeltaN;RIPLET = molecular target: T2, RIG-IdeltaN;RIPLET (human;human, UniProt O95786;Q8IUD6 230-925;1-432, |); assay: EMSA
T2 sequence 1: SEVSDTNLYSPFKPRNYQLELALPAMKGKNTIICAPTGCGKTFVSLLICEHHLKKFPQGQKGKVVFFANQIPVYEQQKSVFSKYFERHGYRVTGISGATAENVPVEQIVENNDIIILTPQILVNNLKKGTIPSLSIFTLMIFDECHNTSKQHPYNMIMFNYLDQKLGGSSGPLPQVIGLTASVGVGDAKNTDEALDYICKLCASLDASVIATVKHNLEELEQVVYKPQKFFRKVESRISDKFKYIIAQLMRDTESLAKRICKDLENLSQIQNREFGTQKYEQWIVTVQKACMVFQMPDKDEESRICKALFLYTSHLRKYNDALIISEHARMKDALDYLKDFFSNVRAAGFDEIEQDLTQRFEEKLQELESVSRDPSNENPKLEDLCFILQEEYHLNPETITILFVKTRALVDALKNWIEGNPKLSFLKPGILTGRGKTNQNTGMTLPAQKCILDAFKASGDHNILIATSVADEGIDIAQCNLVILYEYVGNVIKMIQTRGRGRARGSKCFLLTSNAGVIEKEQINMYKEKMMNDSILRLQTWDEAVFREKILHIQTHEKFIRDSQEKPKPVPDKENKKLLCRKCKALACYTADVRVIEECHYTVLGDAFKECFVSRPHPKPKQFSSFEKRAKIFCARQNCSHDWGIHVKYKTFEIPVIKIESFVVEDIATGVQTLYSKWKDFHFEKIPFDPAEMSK
T2 sequence 2: T1 chain

stoichiometry N (RIPLET (human), Q8IUD6): 2
B1: RIPLET, Q8IUD6 1-432 (enzyme)
chain: T1 chain

B2: 21 bp dsRNA (dsRNA)
RNA 1: GAGUCACGACGUUGUAAAAAA
RNA 2: UUUUUUACAACGUCGUGACUC
modifications: 5'ppp
binding result (RIG-IdeltaN;RIPLET): binds
